# In patent US20190010233A1 (JIANGSU HYAMAB PHARMACEUTICAL, published 2019):
# Where two headings read alike, the source gives them in different places.
# B1: fully human anti-PD-L1 antibody 73D3G2 (antibody, human IgG4 S228P, kappa, V domains shown)
# VH: EVQLVESGGGLVQPGGSLRLSCAASGFTFNTYWMNWVRQAPGRGLEWVANIKQDGGEKYYVDSVKGRFTISRDNAKNSLYLQMNSLRAEDTAMYYCARDGRSWYPDAFDIWGQGTVVTVSS
# VL: DIQMTQSPSTLSASVGDRVTITCRASQSISTWLAWYQQKLGKAPKLLIYEVSILESGVPSRFSGSGSGTEFTLTISSLQPDDFATYYCQQYHSFSSFGGGTRVEIKR
# notes: also called 73D3G2 (fully human)
# B2: fully human anti-PD-L1 antibody 105C5D7 (antibody, V domains shown)
# VH: EVQLVESGGGLVQPGGSLRLSCAASGFTFSSYWMSWVRQAPGKGLEWVANIKQDGNEKYYVDSVKGRFTISRDNAKNSLYLQMNSLRAEDTAVYYCARNIKWGDAFDIWGQGTMVTVSS
# VL: DIQMTQSPSSLSASVGDRVTITCRASQSISSYLNWYQQKPGKAPKLLIYAASSLQSGVPSRFSGSGSGTDFTLTISSLQPEDFAIYSCQQSYSIPLTFGGGTKVEIKR
# notes: also called 105C5D7 (fully human)
# B3: fully human anti-PD-L1 antibody 78A11F6 (antibody, human IgG4 S228P, kappa, V domains shown)
# VH: EVQLVESGGGLVQPGGSLRLSCAASGITFSSYWMSWVRQTPGKGLEWVANIKQDGSEKYYVKSVKGRFTISRDNAKNSLYLQMNSLRAEDTAVYYCVRDRAVPGTGAFDIWGQGTMVIVSS
# VL: DIQMTQSPSTLSASVGDRVTITCRASQSISNWLAWYQQKPGKAPKLLIYKASSLESGVPSRFSGSGSGTEFTLTISSLQPDDFATYYCQQYDSSLFTFGQGTKLEIKR
# notes: also called 78A11F6 (fully human)
# Legend:
# [1] = molecular target: T1, full length human PD-L1 on cells (human, UniProt Q9NZQ7 19-290); assay: cell-based or functional assay
# T1 sequence (Q9NZQ7 19-290 limits assumed): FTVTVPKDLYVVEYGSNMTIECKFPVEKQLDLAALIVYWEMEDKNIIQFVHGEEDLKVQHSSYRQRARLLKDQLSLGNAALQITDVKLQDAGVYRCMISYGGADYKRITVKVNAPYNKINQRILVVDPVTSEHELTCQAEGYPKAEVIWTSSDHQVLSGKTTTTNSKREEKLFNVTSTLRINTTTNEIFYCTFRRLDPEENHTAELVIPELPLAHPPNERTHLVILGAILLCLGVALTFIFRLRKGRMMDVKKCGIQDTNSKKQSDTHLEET
# [2] = molecular target: T1, full length human PD-L1 on cells; assay: FACS CHOK1-hPD-L1, 0.003 nM mAb
# [3] = molecular target: T1, full length human PD-L1 on cells; assay: cell-based or functional assay; remark: listed apart in the source
# [4] = molecular target: T2, full length cyno PD-L1 on cells (cyno, UniProt G7PSE7 19-290); assay: FACS CHO-K1-cPD-L1, 3 nM mAb
# T2 construct: also called CHO-K1-cPD-L1
# T2 sequence (G7PSE7 entry or part of it limits assumed): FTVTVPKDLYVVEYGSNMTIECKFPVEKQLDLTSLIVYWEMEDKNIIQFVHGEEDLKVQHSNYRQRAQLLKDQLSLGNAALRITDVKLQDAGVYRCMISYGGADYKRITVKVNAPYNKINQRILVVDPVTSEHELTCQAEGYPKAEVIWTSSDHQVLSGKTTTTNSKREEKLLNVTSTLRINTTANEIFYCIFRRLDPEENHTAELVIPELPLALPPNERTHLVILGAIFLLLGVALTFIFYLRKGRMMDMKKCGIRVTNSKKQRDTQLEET
# [5] = molecular target: T1, full length human PD-L1 on cells; assay: FACS CHOK1-hPD-L1, 0.0003 nM mAb
# [6] = molecular target: T2, full length cyno PD-L1 on cells; assay: FACS CHO-K1-cPD-L1, 0.3 nM mAb
# [7] = molecular target: T1, full length human PD-L1 on cells; assay: FACS CHOK1-hPD-L1, 300 nM mAb
# [8] = molecular target: T2, full length cyno PD-L1 on cells; assay: FACS CHO-K1-cPD-L1, 30 nM mAb
# [9] = molecular target: T1, full length human PD-L1 on cells; assay: FACS CHOK1-hPD-L1, 0.3 nM mAb
# [10] = molecular target: T1, full length human PD-L1 on cells; assay: cell-based or functional assay; remark: listed apart in the source
# [11] = molecular target: T1, full length human PD-L1 on cells; assay: cell-based or functional assay; remark: listed apart in the source
# [12] = molecular target: T1, full length human PD-L1 on cells; assay: FACS CHOK1-hPD-L1, 0.03 nM mAb
# [13] = molecular target: T2, full length cyno PD-L1 on cells; assay: FACS CHO-K1-cPD-L1, 300 nM mAb
# [14] = molecular target: T2, full length cyno PD-L1 on cells; assay: FACS CHO-K1-cPD-L1, 0.003 nM mAb
# [15] = molecular target: T2, full length cyno PD-L1 on cells; assay: FACS CHO-K1-cPD-L1, 0.0003 nM mAb
# [16] = molecular target: T1, full length human PD-L1 on cells; assay: FACS CHOK1-hPD-L1, 30 nM mAb
# [17] = molecular target: T3, human PD-L1^ECD-hFc protein (human, UniProt Q9NZQ7 19-239, biotinylated in the PD-1 binding ELISA (Table 3) and in the Octet assay (Table 12)); assay: ELISA receptor-ligand blocking assay: PD-L1 protein coated, fully human antibody titrated, blocked ligand B7.1, inhibition rate (%)
# T3 construct: The plain and the biotinylated protein are kept as one molecule; also called PD-L1-hFc; Immunogen A; not shown: human IgG Fc fragment (hFc)
# T3 sequence (Q9NZQ7 19-239): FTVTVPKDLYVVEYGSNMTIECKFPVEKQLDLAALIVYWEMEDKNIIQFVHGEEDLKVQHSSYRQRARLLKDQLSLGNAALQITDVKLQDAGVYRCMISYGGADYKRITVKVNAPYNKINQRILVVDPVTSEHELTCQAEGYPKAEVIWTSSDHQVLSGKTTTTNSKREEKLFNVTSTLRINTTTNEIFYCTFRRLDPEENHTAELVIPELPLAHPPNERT
# [18] = molecular target: T1, full length human PD-L1 on cells; assay: cell-based or functional assay; remark: listed apart in the source
# [19] = molecular target: T2, full length cyno PD-L1 on cells; assay: FACS CHO-K1-cPD-L1, 0.03 nM mAb
# [20] = molecular target: T3, human PD-L1^ECD-hFc protein; assay: ELISA receptor-ligand blocking assay: PD-L1 protein coated, fully human antibody titrated, blocked ligand PD-1, inhibition rate (%)
# [21] = molecular target: T1, full length human PD-L1 on cells; assay: FACS CHOK1-hPD-L1, 3 nM mAb
# [22] = molecular target: T4, recombinant His-tagged hPD-L1 ECD protein (human, UniProt Q9NZQ7 19-239); assay: SPR Biacore T200, mAb captured by anti-human Fc, His-tagged hPD-L1 ECD as analyte, 1:1 model
# T4 construct: also called His-tagged human PD-L1 ECD protein; His-tagged PD-L1^ECD; not shown: His tag
# T4 sequence (Q9NZQ7 19-239): as above
# Protocol: Anti-human Fc IgG was immobilized on flow cells 1 and 2: HBS-EP+ (10 mM HEPES, 150 mM NaCl, 3 mM EDTA, 0.05% P20, pH 7.4) was used as miming buffer, and the immobilization of anti-human Fc IgG was carried out using the immobilization wizard template. Flow cells 1 and 2 of a Series S CM5 sensor chip were activated with freshly-mixed 50 mmol/L NHS and 200 mmol/L EDC. 20 μg/mL of anti-human Fc IgG diluted in 10 mM NaAC (pH 4.5) was injected into the activated flow cells 1 and 2. The remaining active coupling sites were blocked with 1M ethanolamine.
# KD measurements were carried out with HBS-EP+ as the running buffer. Each antibody was injected over the CM5 sensor flow cell 2 with a flow rate of 10 μL/min to reach response 230 RU. […] Buffer flow was maintained for 400 seconds for dissociation measurements (30 μL/min). To remove the tested antibody from the surface, 10 mM glycine-HCl pH 1.5 was injected for 20 seconds (30 μL/min). Flow cell 1 was used as reference flow cell. The above steps were repeated for each concentration of serially-diluted His-tagged PD-L1^ECD protein. The KD value for each antibody was evaluated using Biacore T200 evaluation software 1.0, and the data was fit with a 1:1 binding model.
binder,measurement,setting,value
B1,"IFN-γ (pg/mL), MLR, 0.001 µg/mL mAb",[1],12500 pg/mL
same,"IFN-γ (pg/mL), MLR, 0.01 µg/mL mAb",[1],10000 pg/mL
same,"IFN-γ (pg/mL), MLR, 0.1 µg/mL mAb",[1],21000 pg/mL
same,"IFN-γ (pg/mL), MLR, 1 µg/mL mAb",[1],21500 pg/mL
same,"IFN-γ (pg/mL), MLR, 10 µg/mL mAb",[1],21400 pg/mL
same,Mean fluorescence intensity,[2],7.6
same,"IFN-γ (pg/mL), T cell stimulation assay, 0.001 µg/mL mAb",[3],4450 pg/mL
same,"IFN-γ (pg/mL), T cell stimulation assay, 0.01 µg/mL mAb",[3],10600 pg/mL
same,"IFN-γ (pg/mL), T cell stimulation assay, 0.1 µg/mL mAb",[3],12300 pg/mL
same,"IFN-γ (pg/mL), T cell stimulation assay, 1 µg/mL mAb",[3],12300 pg/mL
same,"IFN-γ (pg/mL), T cell stimulation assay, 10 µg/mL mAb",[3],14000 pg/mL
same,Mean fluorescence intensity,[4],495
same,Mean fluorescence intensity,[5],4.68
same,Mean fluorescence intensity,[6],174
same,Mean fluorescence intensity,[7],602
same,Mean fluorescence intensity,[8],519
same,Mean fluorescence intensity,[9],193
same,"IL-2 (pg/mL), MLR, 0.001 µg/mL mAb",[10],59.7 pg/mL
same,"IL-2 (pg/mL), MLR, 0.01 µg/mL mAb",[10],83.4 pg/mL
same,"IL-2 (pg/mL), MLR, 0.1 µg/mL mAb",[10],114 pg/mL
same,"IL-2 (pg/mL), MLR, 1 µg/mL mAb",[10],139 pg/mL
same,"IL-2 (pg/mL), MLR, 0.001 µg/mL mAb",[11],205 pg/mL
same,"IL-2 (pg/mL), MLR, 0.01 µg/mL mAb",[11],218 pg/mL
same,"IL-2 (pg/mL), MLR, 0.1 µg/mL mAb",[11],563 pg/mL
same,"IL-2 (pg/mL), MLR, 1 µg/mL mAb",[11],716 pg/mL
same,"IL-2 (pg/mL), MLR, 10 µg/mL mAb",[11],791 pg/mL
same,Mean fluorescence intensity,[12],28.6
same,Mean fluorescence intensity,[13],512
same,Mean fluorescence intensity,[14],7.84
same,Mean fluorescence intensity,[15],4.87
same,Mean fluorescence intensity,[16],595
same,IC50 (read off the curve),[17],~1 nM
same,"IFN-γ (pg/mL), MLR, 0.001 µg/mL mAb",[18],957 pg/mL
same,"IFN-γ (pg/mL), MLR, 0.01 µg/mL mAb",[18],1080 pg/mL
same,"IFN-γ (pg/mL), MLR, 0.1 µg/mL mAb",[18],1990 pg/mL
same,"IFN-γ (pg/mL), MLR, 1 µg/mL mAb",[18],3040 pg/mL
same,"IFN-γ (pg/mL), MLR, 10 µg/mL mAb",[18],2590 pg/mL
same,Mean fluorescence intensity,[19],26.2
same,IC50 (read off the curve),[20],~1 nM
same,Mean fluorescence intensity,[21],576
same,Kd,[22],0.536 nM
same,koff,[22],0.000757 s⁻¹
same,kon,[22],1.41e+06 M⁻¹ s⁻¹
B2,Mean fluorescence intensity,[2],7.3
same,Mean fluorescence intensity,[4],375
same,Mean fluorescence intensity,[5],6.61
same,Mean fluorescence intensity,[6],107
same,Mean fluorescence intensity,[7],382
same,Mean fluorescence intensity,[8],335
same,Mean fluorescence intensity,[9],116
same,"IL-2 (pg/mL), MLR, 0.001 µg/mL mAb",[10],43 pg/mL
same,"IL-2 (pg/mL), MLR, 0.01 µg/mL mAb",[10],92.2 pg/mL
same,"IL-2 (pg/mL), MLR, 0.1 µg/mL mAb",[10],118 pg/mL
same,"IL-2 (pg/mL), MLR, 1 µg/mL mAb",[10],148 pg/mL
same,Mean fluorescence intensity,[12],23.1
same,Mean fluorescence intensity,[13],299
same,Mean fluorescence intensity,[14],9.85
same,Mean fluorescence intensity,[15],5.31
same,Mean fluorescence intensity,[16],380
same,IC50 (read off the curve),[17],~2 nM
same,"IFN-γ (pg/mL), MLR, 0.001 µg/mL mAb",[18],1880 pg/mL
same,"IFN-γ (pg/mL), MLR, 0.01 µg/mL mAb",[18],2580 pg/mL
same,"IFN-γ (pg/mL), MLR, 0.1 µg/mL mAb",[18],4930 pg/mL
same,"IFN-γ (pg/mL), MLR, 1 µg/mL mAb",[18],4280 pg/mL
same,"IFN-γ (pg/mL), MLR, 10 µg/mL mAb",[18],5260 pg/mL
same,Mean fluorescence intensity,[19],18.8
same,IC50 (read off the curve),[20],~2 nM
same,Mean fluorescence intensity,[21],435
B3,Mean fluorescence intensity,[2],10.4
same,"IFN-γ (pg/mL), T cell stimulation assay, 0.001 µg/mL mAb",[3],4030 pg/mL
same,"IFN-γ (pg/mL), T cell stimulation assay, 0.01 µg/mL mAb",[3],9200 pg/mL
same,"IFN-γ (pg/mL), T cell stimulation assay, 0.1 µg/mL mAb",[3],9840 pg/mL
same,"IFN-γ (pg/mL), T cell stimulation assay, 1 µg/mL mAb",[3],9960 pg/mL
same,"IFN-γ (pg/mL), T cell stimulation assay, 10 µg/mL mAb",[3],12500 pg/mL
same,Mean fluorescence intensity,[4],521
same,Mean fluorescence intensity,[5],6.53
same,Mean fluorescence intensity,[6],243
same,Mean fluorescence intensity,[7],633
same,Mean fluorescence intensity,[8],529
same,Mean fluorescence intensity,[9],217
same,"IL-2 (pg/mL), MLR, 0.001 µg/mL mAb",[11],210 pg/mL
same,"IL-2 (pg/mL), MLR, 0.01 µg/mL mAb",[11],283 pg/mL
same,"IL-2 (pg/mL), MLR, 0.1 µg/mL mAb",[11],730 pg/mL
same,"IL-2 (pg/mL), MLR, 1 µg/mL mAb",[11],736 pg/mL
same,"IL-2 (pg/mL), MLR, 10 µg/mL mAb",[11],842 pg/mL
same,Mean fluorescence intensity,[12],36.5
same,Mean fluorescence intensity,[13],538
same,Mean fluorescence intensity,[14],8.94
same,Mean fluorescence intensity,[15],5.47
same,Mean fluorescence intensity,[16],620
same,IC50 (read off the curve),[17],~0.7 nM
same,"IFN-γ (pg/mL), MLR, 0.001 µg/mL mAb",[18],1080 pg/mL
same,"IFN-γ (pg/mL), MLR, 0.01 µg/mL mAb",[18],1650 pg/mL
same,"IFN-γ (pg/mL), MLR, 0.1 µg/mL mAb",[18],3010 pg/mL
same,"IFN-γ (pg/mL), MLR, 1 µg/mL mAb",[18],3760 pg/mL
same,"IFN-γ (pg/mL), MLR, 10 µg/mL mAb",[18],3400 pg/mL
same,Mean fluorescence intensity,[19],64.1
same,IC50 (read off the curve),[20],~0.7 nM
same,Mean fluorescence intensity,[21],619
same,Kd,[22],0.643 nM
same,koff,[22],0.000472 s⁻¹
same,kon,[22],734000 M⁻¹ s⁻¹
